Patent publication US20230190900 (published 2023)

T1: human FcγRIIIb (NA1) CD16B (human, UniProt O75015)
T1 chain: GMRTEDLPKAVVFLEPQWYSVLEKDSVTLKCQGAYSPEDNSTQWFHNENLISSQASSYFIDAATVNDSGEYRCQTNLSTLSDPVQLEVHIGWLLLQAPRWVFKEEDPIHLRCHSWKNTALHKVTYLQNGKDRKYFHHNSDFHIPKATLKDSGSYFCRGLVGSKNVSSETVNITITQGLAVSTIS

T2: human FcγRIIc (CD32C) (human, UniProt P31995)
T2 chain: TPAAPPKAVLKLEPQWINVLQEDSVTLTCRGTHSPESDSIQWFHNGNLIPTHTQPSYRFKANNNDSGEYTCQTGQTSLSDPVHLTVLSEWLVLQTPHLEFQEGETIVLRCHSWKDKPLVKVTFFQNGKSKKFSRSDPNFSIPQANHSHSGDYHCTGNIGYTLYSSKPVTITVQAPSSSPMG

T3: murine FcγRIIb (mouse, UniProt P08101)
T3 chain: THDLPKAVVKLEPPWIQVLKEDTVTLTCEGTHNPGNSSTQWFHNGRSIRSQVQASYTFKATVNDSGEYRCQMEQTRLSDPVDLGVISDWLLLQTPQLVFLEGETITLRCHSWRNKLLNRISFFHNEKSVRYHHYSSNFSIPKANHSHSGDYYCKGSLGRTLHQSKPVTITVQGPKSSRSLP

T4: cynomolgus FcγRIIa (CD32A) (cynomolgus)
T4 chain: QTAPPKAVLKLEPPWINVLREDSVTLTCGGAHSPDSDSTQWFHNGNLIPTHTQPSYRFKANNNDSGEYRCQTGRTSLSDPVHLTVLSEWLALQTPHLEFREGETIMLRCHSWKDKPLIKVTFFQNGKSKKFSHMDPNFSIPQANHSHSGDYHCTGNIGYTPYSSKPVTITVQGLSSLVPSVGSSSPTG

T5: human FcγRIIb (CD32B) (human, UniProt P31994)
T5 chain: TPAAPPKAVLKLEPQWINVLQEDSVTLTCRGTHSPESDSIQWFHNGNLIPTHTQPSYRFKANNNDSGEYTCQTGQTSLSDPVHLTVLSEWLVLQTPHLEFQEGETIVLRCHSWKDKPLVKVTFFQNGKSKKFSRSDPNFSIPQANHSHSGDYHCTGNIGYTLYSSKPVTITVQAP

T6: murine FcγRI (mouse, UniProt P26151)
T6 chain: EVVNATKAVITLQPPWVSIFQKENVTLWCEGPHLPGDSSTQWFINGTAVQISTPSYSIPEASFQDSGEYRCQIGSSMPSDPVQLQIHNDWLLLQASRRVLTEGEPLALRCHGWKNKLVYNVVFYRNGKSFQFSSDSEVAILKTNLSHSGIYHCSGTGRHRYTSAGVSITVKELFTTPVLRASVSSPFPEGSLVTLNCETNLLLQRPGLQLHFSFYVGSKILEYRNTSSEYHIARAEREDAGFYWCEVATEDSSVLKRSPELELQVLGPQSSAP

T7: human FcγRIIa (CD32A) (human, UniProt P12318)
T7 chain: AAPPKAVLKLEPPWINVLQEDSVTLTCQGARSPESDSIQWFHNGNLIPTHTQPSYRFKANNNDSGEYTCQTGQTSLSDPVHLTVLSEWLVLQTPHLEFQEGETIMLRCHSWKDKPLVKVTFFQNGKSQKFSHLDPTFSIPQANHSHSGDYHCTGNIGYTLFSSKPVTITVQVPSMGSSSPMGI

T8: murine FcγRIV (CD16-2) (mouse, UniProt A0A0B4J1G0)
T8 chain: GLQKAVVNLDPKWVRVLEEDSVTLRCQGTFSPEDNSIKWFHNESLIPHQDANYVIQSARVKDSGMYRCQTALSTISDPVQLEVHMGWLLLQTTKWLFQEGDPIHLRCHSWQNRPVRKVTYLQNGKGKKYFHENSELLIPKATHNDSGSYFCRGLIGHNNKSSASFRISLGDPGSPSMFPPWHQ

T9: human FcγRI (CD64) (human, UniProt P12314)
T9 chain: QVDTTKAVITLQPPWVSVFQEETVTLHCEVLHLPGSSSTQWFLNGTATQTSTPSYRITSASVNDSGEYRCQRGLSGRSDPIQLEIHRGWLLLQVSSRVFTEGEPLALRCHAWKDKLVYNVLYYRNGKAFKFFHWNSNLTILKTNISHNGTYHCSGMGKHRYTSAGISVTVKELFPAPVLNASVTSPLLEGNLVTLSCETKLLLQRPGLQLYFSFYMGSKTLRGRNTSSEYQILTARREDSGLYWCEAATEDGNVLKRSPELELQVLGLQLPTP

T10: murine FcγRIII (mouse, UniProt P08508)
T10 chain: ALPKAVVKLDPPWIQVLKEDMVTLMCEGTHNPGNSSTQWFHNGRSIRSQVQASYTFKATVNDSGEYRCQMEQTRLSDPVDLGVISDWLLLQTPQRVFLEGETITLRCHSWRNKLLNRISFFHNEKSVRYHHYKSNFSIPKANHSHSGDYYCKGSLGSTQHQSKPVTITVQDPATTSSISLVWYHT

T11: murine FcRn (mouse, UniProt Q61559)
T11 chain 1: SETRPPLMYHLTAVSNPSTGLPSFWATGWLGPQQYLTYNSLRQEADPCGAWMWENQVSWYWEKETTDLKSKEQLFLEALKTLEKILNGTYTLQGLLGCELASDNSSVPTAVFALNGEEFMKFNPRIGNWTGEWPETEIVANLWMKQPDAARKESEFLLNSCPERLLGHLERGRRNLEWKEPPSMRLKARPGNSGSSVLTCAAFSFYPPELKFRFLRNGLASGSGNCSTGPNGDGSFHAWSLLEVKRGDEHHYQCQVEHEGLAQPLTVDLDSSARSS
T11 chain 2: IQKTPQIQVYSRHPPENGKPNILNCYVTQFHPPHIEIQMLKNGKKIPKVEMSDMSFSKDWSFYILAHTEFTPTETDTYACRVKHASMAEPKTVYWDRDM

T12: cynomolgus FcRn (cynomolgus, UniProt Q8SPV9)
T12 chain 1: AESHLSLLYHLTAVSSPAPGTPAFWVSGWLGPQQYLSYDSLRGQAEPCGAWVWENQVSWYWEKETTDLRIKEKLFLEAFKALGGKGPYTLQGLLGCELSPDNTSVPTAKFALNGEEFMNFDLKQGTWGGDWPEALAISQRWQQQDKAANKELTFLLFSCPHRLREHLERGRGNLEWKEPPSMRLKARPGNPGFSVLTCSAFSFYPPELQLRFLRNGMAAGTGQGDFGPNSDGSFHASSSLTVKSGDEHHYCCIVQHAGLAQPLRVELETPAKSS
T12 chain 2: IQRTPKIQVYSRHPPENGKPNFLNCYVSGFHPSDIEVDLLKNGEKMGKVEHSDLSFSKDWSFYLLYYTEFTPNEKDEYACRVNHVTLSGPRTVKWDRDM


Key:
[1] = target: T1, human FcγRIIIb (NA1) CD16B; experiment: SPR
[2] = target: T2, human FcγRIIc (CD32C); experiment: SPR
[3] = target: T3, murine FcγRIIb; experiment: SPR
[4] = target: T4, cynomolgus FcγRIIa (CD32A); experiment: SPR
[5] = target: T5, human FcγRIIb (CD32B); experiment: SPR
[6] = target: T6, murine FcγRI; experiment: SPR
[7] = target: T7, human FcγRIIa (CD32A); experiment: SPR
[8] = target: T8, murine FcγRIV (CD16-2); experiment: SPR
[9] = target: T9, human FcγRI (CD64); experiment: SPR
[10] = target: T10, murine FcγRIII; experiment: SPR
[11] = target: T11, murine FcRn; experiment: SPR, pH 6.0
[12] = target: human FcRn (human, UniProt P55899); experiment: SPR, pH 6.0
[13] = target: T12, cynomolgus FcRn; experiment: SPR, pH 6.0

Row | binding result [1] | binding result [2] | binding result [3] | binding result [4] | binding result [5] | binding result [6] | binding result [7] | binding result [8] | binding result [9] | binding result [10] | Kd [11] | Kd [12] | Kd [13] | Binder
1 | no binding | no binding | no binding | no binding | no binding | no binding | no binding | no binding | no binding | no binding | 121 nM | 410 nM | 268 nM | Bi-scFv-Fc_02 (full) (antibody) chain 1: SYVLTQPSSVSVAPGQTATISCGGHNIGSKNVHWYQQRPGQSPVLVIYQDNKRPSGIPERFSGSNSGNTATLTISGTQAMDEADYYCQVWDNYSVLFGGGTKLTVLGGSGGSGGSGGSGGSGGSGGSQVQLVQSGAEVKKPGESLKVSCKASGYTFTSYYMHWVRQAPGQGLEWMGIINPSGGSTSYAQKFQGRVTMTRDTSTSTVYMELSSLRSEDTAVYYCARGSAYYYDFADYWGQGTLVTVSSEPKSCDKTHTCPPCPAPEFEGGPSVFLFPPKPKDTLMISRTPEVTCVVVAVSHEDPEVKFNWYVDGVEVHNAKTKPREEQYNSTYRVVSVLTVLHQDWLNGKEYKCKVSNKALPAPIEKTISKAKGQPREPQVYTLPPSREEMTKNQVSLTCLVKGFYPSDIAVEWESNGQPENNYKTTPPVLDSDGSFFLYSKLTVDKSRWQQGNVFSCSVMHEALHNHYTQKSLSLSPGGGGGSGGGGSQVQLQESGPGLVKPSETLSLTCTVSGGSVSSGSYYWSWIRQPPGKGLEWIGYIYYSGSTNYNPSLKSRVTISVDTSKNQFSLKLSSVTAADTAVYYCARNPISIPAFDIWGQGTMVTVSSGGSGGSGGSGGSGGSGGSQPVLTQPPSVSVAPGKTARITCGGNNIGSKSVHWYQQKPGQAPVLVIYYDSDRPSGIPERFSGSNSGNTATLTISRVEAGDEADYYCQVWDTSSDHVLFGGGTKLTVL chain 2: SYVLTQPSSVSVAPGQTATISCGGHNIGSKNVHWYQQRPGQSPVLVIYQDNKRPSGIPERFSGSNSGNTATLTISGTQAMDEADYYCQVWDNYSVLFGGGTKLTVLGGSGGSGGSGGSGGSGGSGGSQVQLVQSGAEVKKPGESLKVSCKASGYTFTSYYMHWVRQAPGQGLEWMGIINPSGGSTSYAQKFQGRVTMTRDTSTSTVYMELSSLRSEDTAVYYCARGSAYYYDFADYWGQGTLVTVSSEPKSCDKTHTCPPCPAPEFEGGPSVFLFPPKPKDTLMISRTPEVTCVVVAVSHEDPEVKFNWYVDGVEVHNAKTKPREEQYNSTYRVVSVLTVLHQDWLNGKEYKCKVSNKALPAPIEKTISKAKGQPREPQVYTLPPSREEMTKNQVSLTCLVKGFYPSDIAVEWESNGQPENNYKTTPPVLDSDGSFFLYSKLTVDKSRWQQGNVFSCSVMHEALHNHYTQKSLSLSPGGGGGSGGGGSQVQLQESGPGLVKPSETLSLTCTVSGGSVSSGSYYWSWIRQPPGKGLEWIGYIYYSGSTNYNPSLKSRVTISVDTSKNQFSLKLSSVTAADTAVYYCARNPISIPAFDIWGQGTMVTVSSGGSGGSGGSGGSGGSGGSQPVLTQPPSVSVAPGKTARITCGGNNIGSKSVHWYQQKPGQAPVLVIYYDSDRPSGIPERFSGSNSGNTATLTISRVEAGDEADYYCQVWDTSSDHVLFGGGTKLTVL
2 | no binding | no binding | no binding | no binding | no binding | no binding | no binding | no binding | no binding | no binding | 180 nM | 430 nM | 842 nM | scFv-IgAb_02 (full) (antibody) chain 1: QVQLVQSGAEVKKPGESLKVSCKASGYTFTSYYMHWVRQAPGQGLEWMGIINPSGGSTSYAQKFQGRVTMTRDTSTSTVYMELSSLRSEDTAVYYCARGSAYYYDFADYWGQGTLVTVSSASTKGPSVFPLAPSSKSTSGGTAALGCLVKDYFPEPVTVSWNSGALTSGVHTFPAVLQSSGLYSLSSVVTVPSSSLGTQTYICNVNHKPSNTKVDKKVEPKSCDKTHTCPPCPAPEFEGGPSVFLFPPKPKDTLMISRTPEVTCVVVAVSHEDPEVKFNWYVDGVEVHNAKTKPREEQYNSTYRVVSVLTVLHQDWLNGKEYKCKVSNKALPAPIEKTISKAKGQPREPQVYTLPPSREEMTKNQVSLTCLVKGFYPSDIAVEWESNGQPENNYKTTPPVLDSDGSFFLYSKLTVDKSRWQQGNVFSCSVMHEALHNHYTQKSLSLSPGGGGGSGGGGSQVQLQESGPGLVKPSETLSLTCTVSGGSVSSGSYYWSWIRQPPGKGLEWIGYIYYSGSTNYNPSLKSRVTISVDTSKNQFSLKLSSVTAADTAVYYCARNPISIPAFDIWGQGTMVTVSSGGSGGSGGSGGSGGSGGSQPVLTQPPSVSVAPGKTARITCGGNNIGSKSVHWYQQKPGQAPVLVIYYDSDRPSGIPERFSGSNSGNTATLTISRVEAGDEADYYCQVWDTSSDHVLFGGGTKLTVL chain 2: SYVLTQPSSVSVAPGQTATISCGGHNIGSKNVHWYQQRPGQSPVLVIYQDNKRPSGIPERFSGSNSGNTATLTISGTQAMDEADYYCQVWDNYSVLFGGGTKLTVLGQPKAAPSVTLFPPSSEELQANKATLVCLISDFYPGAVTVAWKADSSPVKAGVETTTPSKQSNNKYAASSYLSLTPEQWKSHRSYSCQVTHEGSTVEKTVAPTECS
